From publication PMC6336354, “A transient helix in the disordered region of dynein light intermediate chain links the motor to structurally diverse adaptors for cargo transport” (PLoS Biology, 2019)
Values belong to the binder of their own block, whether it stands above or below them.

Legend:
Assay in all cases: pull-down; GST::LIC::6xHis (50 pmol) with 50 or 250 pmol adaptor and glutathione agarose, 1 h at 4°C, 150 μL of 50 mM HEPES, 100 mM NaCl, 5 mM DTT, pH 7.5, 0.1% Tween 20; Coomassie staining and immunoblot against Strep-tag II
Conditions in all cases: both partners purified
[1] = molecular target: T1, SPDL1(2–359)::Strep-tag II (human, UniProt Q96EA4 2-359)
T1 construct: human Spindly (SPDL1), N-terminal region, residues 2-359; also called Spindly; source: E. coli BL21, purified (Ni-NTA, TEV cleavage, Strep-Tactin; dialysis or SEC); not shown: 6xHis::MBP, N-terminal, cleaved; Strep-tag II (after linker GSGSGR), C-terminal, kept
T1 sequence (looked up): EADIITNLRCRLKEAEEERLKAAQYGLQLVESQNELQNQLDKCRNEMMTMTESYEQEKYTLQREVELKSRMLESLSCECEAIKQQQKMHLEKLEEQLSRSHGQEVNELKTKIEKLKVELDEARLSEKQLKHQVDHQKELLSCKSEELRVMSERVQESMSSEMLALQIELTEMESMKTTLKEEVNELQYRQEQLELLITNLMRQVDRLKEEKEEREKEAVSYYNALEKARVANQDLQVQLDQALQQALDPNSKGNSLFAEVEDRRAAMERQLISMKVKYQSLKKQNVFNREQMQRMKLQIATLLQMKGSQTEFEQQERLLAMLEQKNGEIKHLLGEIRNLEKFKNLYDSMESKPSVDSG

[2] = molecular target: T2, RAB11FIP3(2–756)::Strep-tag II (human, UniProt O75154 2-756)
T2 construct: source: E. coli BL21, purified (Ni-NTA, TEV cleavage, Strep-Tactin; dialysis or SEC); not shown: 6xHis::MBP, N-terminal, cleaved; Strep-tag II (after linker GSGSGR), C-terminal, kept
T2 sequence (looked up): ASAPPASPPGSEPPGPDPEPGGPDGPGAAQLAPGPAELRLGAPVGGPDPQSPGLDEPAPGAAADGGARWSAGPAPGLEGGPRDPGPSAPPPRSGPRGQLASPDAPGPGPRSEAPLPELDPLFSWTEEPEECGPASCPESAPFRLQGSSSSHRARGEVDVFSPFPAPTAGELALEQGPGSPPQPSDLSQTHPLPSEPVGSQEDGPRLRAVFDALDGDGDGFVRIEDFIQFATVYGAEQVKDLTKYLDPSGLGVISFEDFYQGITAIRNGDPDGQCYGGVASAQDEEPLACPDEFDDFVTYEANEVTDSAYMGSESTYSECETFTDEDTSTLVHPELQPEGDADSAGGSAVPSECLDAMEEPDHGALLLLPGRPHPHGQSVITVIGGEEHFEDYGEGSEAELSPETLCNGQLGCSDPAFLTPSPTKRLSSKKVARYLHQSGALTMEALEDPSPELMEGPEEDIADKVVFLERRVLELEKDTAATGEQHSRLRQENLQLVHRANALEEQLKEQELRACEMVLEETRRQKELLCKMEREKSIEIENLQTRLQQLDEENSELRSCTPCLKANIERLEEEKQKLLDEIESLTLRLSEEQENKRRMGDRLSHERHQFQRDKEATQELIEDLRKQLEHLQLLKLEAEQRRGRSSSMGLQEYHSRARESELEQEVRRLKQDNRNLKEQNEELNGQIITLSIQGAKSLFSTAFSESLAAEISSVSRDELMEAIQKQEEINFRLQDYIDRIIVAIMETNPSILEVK

[3] = molecular target: T3, BICD2(2–422)::Strep-tag II (human, UniProt Q8TD16 2-422)
T3 construct: human bicaudal D homolog 2 (BICD2), N-terminal region, residues 2-422; also called bicaudal D homolog 2; source: E. coli BL21, purified (Ni-NTA, TEV cleavage, Strep-Tactin; dialysis or SEC); not shown: 6xHis::MBP, N-terminal, cleaved; Strep-tag II (after linker GSGSGR), C-terminal, kept

[4] = molecular target: T4, HOOK3(2–552)::Strep-tag II (human, UniProt Q86VS8 2-552)
T4 construct: human Hook homolog 3 (HOOK3), residues 2-552; used for the GST pull-downs; also called Hook homolog 3; source: E. coli Rosetta, purified (Ni-NTA, TEV cleavage, Strep-Tactin; dialysis or SEC); not shown: 6xHis::MBP, N-terminal, cleaved; Strep-tag II (after linker GSGSGR), C-terminal, kept
T4 sequence (looked up): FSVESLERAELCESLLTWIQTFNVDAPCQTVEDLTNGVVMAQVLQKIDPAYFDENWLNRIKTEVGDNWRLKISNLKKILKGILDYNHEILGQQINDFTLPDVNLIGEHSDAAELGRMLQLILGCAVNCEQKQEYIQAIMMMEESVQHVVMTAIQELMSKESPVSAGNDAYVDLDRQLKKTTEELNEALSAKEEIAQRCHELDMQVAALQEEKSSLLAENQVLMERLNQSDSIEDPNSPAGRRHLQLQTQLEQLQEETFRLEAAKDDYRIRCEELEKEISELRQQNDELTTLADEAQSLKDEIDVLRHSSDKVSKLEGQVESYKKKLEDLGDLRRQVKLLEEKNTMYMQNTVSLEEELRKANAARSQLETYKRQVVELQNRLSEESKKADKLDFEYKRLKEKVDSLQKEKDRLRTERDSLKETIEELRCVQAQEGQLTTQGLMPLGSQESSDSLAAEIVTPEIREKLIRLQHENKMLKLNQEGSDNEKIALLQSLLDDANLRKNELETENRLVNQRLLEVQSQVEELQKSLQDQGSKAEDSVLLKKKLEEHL

T3 sequence (Q8TD16 2-422): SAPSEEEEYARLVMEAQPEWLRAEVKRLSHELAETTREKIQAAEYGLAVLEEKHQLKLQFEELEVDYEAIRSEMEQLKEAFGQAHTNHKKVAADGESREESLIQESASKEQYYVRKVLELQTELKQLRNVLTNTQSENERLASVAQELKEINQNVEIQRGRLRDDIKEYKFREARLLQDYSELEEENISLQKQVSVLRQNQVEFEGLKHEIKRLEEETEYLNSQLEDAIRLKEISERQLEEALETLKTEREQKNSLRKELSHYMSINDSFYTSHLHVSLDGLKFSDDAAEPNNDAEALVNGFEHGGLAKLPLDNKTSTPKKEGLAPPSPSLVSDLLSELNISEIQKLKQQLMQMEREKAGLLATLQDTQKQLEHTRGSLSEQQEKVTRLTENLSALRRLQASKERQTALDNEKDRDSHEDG

binding result [1]: binds
binding result [2]: binds
binding result [4]: binds
B1: GST::LIC2(375–492)::6xHis (domain or fragment, human)
chain: WATPTRASESPARGPSGSPRTQGRGGPASVPSSSPGTSVKKPDPNIKNNAASEGVLASFFNSLLSKKTGSPGSPGAGGVQSTAKKSGQKTVLSNVQEELDRMTRKPDSMVTNSSTENEA
notes: single N-terminal tryptophan added in the construct; also called LIC2-C; source: E. coli BL21, purified (glutathione agarose, Ni-NTA; dialysis or SEC); not shown: GST, N-terminal, kept; 6xHis (after linker GSGSG), C-terminal, kept
binding result [3]: binds

binding result [1]: binds
binding result [2]: binds
binding result [4]: binds
B2: GST::LIC1(414–471)::6xHis (domain or fragment, human)
chain: WSSNVASVSPIPAGSKKIDPNMKAGATSEGVLANFFNSLLSKKTGSPGGPGVSGGSPAG
notes: single N-terminal tryptophan added in the construct; human dynein light intermediate chain 1 (DYNC1LI1), residues 414-471; source: E. coli BL21, purified (glutathione agarose, Ni-NTA; dialysis or SEC); not shown: GST, N-terminal, kept; 6xHis (after linker GSGSG), C-terminal, kept
binding result [3]: binds

binding result [1]: binds
binding result [2]: binds
binding result [4]: binds
B3: GST::LIC2(375–450)::6xHis (domain or fragment, human)
chain: WATPTRASESPARGPSGSPRTQGRGGPASVPSSSPGTSVKKPDPNIKNNAASEGVLASFFNSLLSKKTGSPGSPGAG
notes: single N-terminal tryptophan added in the construct; source: E. coli BL21, purified (glutathione agarose, Ni-NTA; dialysis or SEC); not shown: GST, N-terminal, kept; 6xHis (after linker GSGSG), C-terminal, kept
binding result [3]: binds

binding result [1]: binds
binding result [2]: binds
binding result [4]: binds
B4: GST::LIC1(402–471)::6xHis (domain or fragment, human)
chain: WPGGSPRTPNRSVSSNVASVSPIPAGSKKIDPNMKAGATSEGVLANFFNSLLSKKTGSPGGPGVSGGSPAG
notes: single N-terminal tryptophan added in the construct; human dynein light intermediate chain 1 (DYNC1LI1), residues 402-471; source: E. coli BL21, purified (glutathione agarose, Ni-NTA; dialysis or SEC); not shown: GST, N-terminal, kept; 6xHis (after linker GSGSG), C-terminal, kept
binding result [3]: binds
